Laboratory results from patent US20090298765A1 (Takeda / Millennium, published 2009).
Non-standard residues stand in square brackets, D forms with d. No end group written: not given here. *: point of attachment. Phe(4-F) = N[C@@H](Cc1ccc(F)cc1)C(=O)O; Cyclohexanecarbonyl = O=C(C1CCCCC1)*; Arg(Me) = CNC(=N)NCCC[C@H](N)C(=O)O; 4Pal = N[C@@H](Cc1ccncc1)C(=O)O; amidino = N=C(N)*; azaGly = NNC(=O)O

What was measured:
[1] = target: T1, human OT7T175 (metastin receptor) (human, UniProt Q969F8 1-398); assay: competition with Cy-5 metastin (40-54) on hOT7T175-CHO cells, FMAT
T1 construct: expressed on CHO cells; also called hOT7T175; hOT7T175-expressed CHO cells
T1 sequence (Q969F8 whole entry L364H): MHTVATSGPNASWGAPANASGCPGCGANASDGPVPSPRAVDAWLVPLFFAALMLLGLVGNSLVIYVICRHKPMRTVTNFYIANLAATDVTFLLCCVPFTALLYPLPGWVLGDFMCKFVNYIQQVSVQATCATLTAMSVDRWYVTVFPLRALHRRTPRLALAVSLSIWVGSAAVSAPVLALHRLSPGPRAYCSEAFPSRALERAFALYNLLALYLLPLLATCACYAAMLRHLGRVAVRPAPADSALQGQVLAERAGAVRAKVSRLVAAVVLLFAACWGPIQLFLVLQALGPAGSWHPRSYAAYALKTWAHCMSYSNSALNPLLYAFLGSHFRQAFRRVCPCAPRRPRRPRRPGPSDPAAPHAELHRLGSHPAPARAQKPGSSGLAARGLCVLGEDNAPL

[2] = target: T1, human OT7T175 (metastin receptor); assay: cell-based or functional assay
[3] = target: T1, human OT7T175 (metastin receptor); assay: cell-based or functional assay; remark: listed apart in the source

YNWNSFGL[Arg(Me)]F-NH2 (also called Compound No. 82) [[Arg(Me)9]MS10]
IC50 [1]: 4.1 nM | Ca ion level-increasing activity (FLIPR, 40 s) [2]: 1 EC50/MS10 EC50

B1: [D-Tyr1,D-Asn2,Pya(4)3,AzaGly7,Arg(Me)9,Phe(4F)10]MS10 (peptide)
peptide: [dY][dN][4Pal]NSF[azaGly]L[Arg(Me)][Phe(4-F)]-NH2
modifications: N-terminus assumed
SMILES: CNC(=N)NCCC[C@H](NC(=O)[C@H](CC(C)C)NC(=O)NNC(=O)[C@H](Cc1ccccc1)NC(=O)[C@H](CO)NC(=O)[C@H](CC(N)=O)NC(=O)[C@H](Cc1ccncc1)NC(=O)[C@@H](CC(N)=O)NC(=O)[C@H](N)Cc1ccc(O)cc1)C(=O)N[C@@H](Cc1ccc(F)cc1)C(N)=O
notes: also called Compound No. 317
IC50 [1]: 2.1 nM | Ca ion level-increasing activity (FLIPR) [3]: 1 x Metastin (1-54)

[dY]INSF[azaGly]L[Arg(Me)]F-NH2 (also called Compound No. 240) [des(1)-[D-Tyr2,Ile3,AzaGly7,Arg(Me)9]MS10]
IC50 [1]: 17 nM | Ca ion level-increasing activity (FLIPR, 40 s) [2]: 4.9 EC50/MS10 EC50

[dY]SNSF[azaGly]L[Arg(Me)]F-NH2 (also called Compound No. 239) [des(1)-[D-Tyr2,Ser3,AzaGly7,Arg(Me)9]MS10]
IC50 [1]: 120 nM | Ca ion level-increasing activity (FLIPR, 40 s) [2]: 6.7 EC50/MS10 EC50

B2: des(1-2)-[AzaGly7,Arg(Me)9]MS10 (peptide)
peptide: WNSF[azaGly]LR(Me)F-NH2
modifications: N-terminus assumed
SMILES: CNC(=N)NCCC[C@H](NC(=O)[C@H](CC(C)C)NC(=O)NNC(=O)[C@H](Cc1ccccc1)NC(=O)[C@H](CO)NC(=O)[C@H](CC(N)=O)NC(=O)[C@@H](N)Cc1c[nH]c2ccccc12)C(=O)N[C@@H](Cc1ccccc1)C(N)=O
notes: also called Compound No. 271
IC50 [1]: 120 nM | Ca ion level-increasing activity (FLIPR) [3]: 1 x Metastin (1-54)

B3: Endo-Phe5a-[D-Tyr1,Phe3,AzaGly7,Arg(Me)9]MS10 (peptide)
peptide: [dY]NFNSFF[azaGly]L[Arg(Me)]F-NH2
modifications: N-terminus assumed
SMILES: CNC(=N)NCCC[C@H](NC(=O)[C@H](CC(C)C)NC(=O)NNC(=O)[C@H](Cc1ccccc1)NC(=O)[C@H](Cc1ccccc1)NC(=O)[C@H](CO)NC(=O)[C@H](CC(N)=O)NC(=O)[C@H](Cc1ccccc1)NC(=O)[C@H](CC(N)=O)NC(=O)[C@H](N)Cc1ccc(O)cc1)C(=O)N[C@@H](Cc1ccccc1)C(N)=O
notes: printed in three-letter code: D-Tyr-Asn-Phe-Asn-Ser-Phe-Phe-AzaGly-Leu-Arg(Me)-Phe-NH2; also called Compound No. 270
IC50 [1]: 15 nM | Ca ion level-increasing activity (FLIPR) [3]: 1 x Metastin (1-54)

YNWNSXGLRF (D-Tyr1; Pya(2)6; Arg(Me)9; C-terminal amide, also called Compound No. 281) [[D-Tyr1,Pya(2)6,Arg(Me)9]MS10]
IC50 [1]: 230 nM | Ca ion level-increasing activity (FLIPR) [3]: 0.5 x Metastin (1-54)

Y[dN]WNSFGLRF-NH2 [[D-Asn2]MS10]
Ca ion level-increasing activity (FLIPR, 40 s) [2]: 2.7 EC50/MS10 EC50

{4‑imidazoleacetyl}-NSF[azaGly]L[Arg(Me)]F-NH2 (also called Compound No. 323) [des(1-3)-4-Imidazoleacetyl-[AzaGly7,Arg(Me)9]MS10]
IC50 [1]: 280 nM | Ca ion level-increasing activity (FLIPR) [3]: 1 x Metastin (1-54)

{n‑hexanoyl}-NSF[azaGly]L[Arg(Me)]F-NH2 (also called Compound No. 277) [des(1-3)-n-Hexanoyl-[AzaGly7,Arg(Me)9]MS10]
IC50 [1]: 54 nM | Ca ion level-increasing activity (FLIPR) [3]: 2 x Metastin (1-54)

B4: [D-Tyr1,D-Asn2,Thr5,AzaGly7,Arg(Me)9]MS10 (peptide)
peptide: [dY][dN]WNTF[azaGly]L[Arg(Me)]F-NH2
modifications: N-terminus assumed
SMILES: CNC(=N)NCCC[C@H](NC(=O)[C@H](CC(C)C)NC(=O)NNC(=O)[C@H](Cc1ccccc1)NC(=O)[C@@H](NC(=O)[C@H](CC(N)=O)NC(=O)[C@H](Cc1c[nH]c2ccccc12)NC(=O)[C@@H](CC(N)=O)NC(=O)[C@H](N)Cc1ccc(O)cc1)[C@@H](C)O)C(=O)N[C@@H](Cc1ccccc1)C(N)=O
notes: also called Compound No. 298
IC50 [1]: 0.25 nM | Ca ion level-increasing activity (FLIPR) [3]: 5 x Metastin (1-54) | Ca ion level-increasing activity (FLIPR, 40 s) [2]: 1.8 EC50/MS10 EC50

B5: [D-Tyr1,Thr5,AzaGly7,Arg(Me)9]MS10 (peptide)
peptide: [dY]NWNTF[azaGly]L[Arg(Me)]F-NH2
modifications: N-terminus assumed
SMILES: CNC(=N)NCCC[C@H](NC(=O)[C@H](CC(C)C)NC(=O)NNC(=O)[C@H](Cc1ccccc1)NC(=O)[C@@H](NC(=O)[C@H](CC(N)=O)NC(=O)[C@H](Cc1c[nH]c2ccccc12)NC(=O)[C@H](CC(N)=O)NC(=O)[C@H](N)Cc1ccc(O)cc1)[C@@H](C)O)C(=O)N[C@@H](Cc1ccccc1)C(N)=O
notes: also called Compound No. 297
IC50 [1]: 0.93 nM | Ca ion level-increasing activity (FLIPR) [3]: 1 x Metastin (1-54) | Ca ion level-increasing activity (FLIPR, 40 s) [2]: 5.5 EC50/MS10 EC50

B6: des(1-2)-Amidino-[AzaGly7,Arg(Me)9]MS10 (peptide)
peptide: amidino-WNSF[azaGly]L[Arg(Me)]F-NH2
SMILES: CNC(=N)NCCC[C@H](NC(=O)[C@H](CC(C)C)NC(=O)NNC(=O)[C@H](Cc1ccccc1)NC(=O)[C@H](CO)NC(=O)[C@H](CC(N)=O)NC(=O)[C@H](Cc1c[nH]c2ccccc12)NC(=N)N)C(=O)N[C@@H](Cc1ccccc1)C(N)=O
notes: also called Compound No. 273
IC50 [1]: 300 nM | Ca ion level-increasing activity (FLIPR) [3]: 5 x Metastin (1-54)

Cyclohexanecarbonyl-NSF[azaGly]L[Arg(Me)]F-NH2 (also called Compound No. 278) [des(1-3)-Cyclohexanecarbonyl-[AzaGly7,Arg(Me)9]MS10]
IC50 [1]: 110 nM | Ca ion level-increasing activity (FLIPR) [3]: 2 x Metastin (1-54)
